In patent US20230037682A1 one finds Kd data, which are given here for one substance.

In the test the target is CD3 peptide. Description: SPR (Biacore); 25 °C. Background: In SPR one partner is held on a chip, and binding of the other changes the refractive index at the surface.

With J6MO_SP34 (sp34), the Kd came to 13.9 nM.

What is called Kd is the concentration at which binding is half-saturated.
